Test results published in paper PMC4081127.

Substrate: C[C@@](O)(CCO)CC(=O)O
Test: purified protein
Details: pH 8.5; 55.0 °C

B1: Ta1305 (mevalonate-3-kinase) (Thermoplasma acidophilum DSM 1728) (protein)
chain: MTYRSIGSTAYPTIGVVLLGGIANPVTRTPLHTSAGIAYSDSCGSIRSETRIYADEATHIYFNGTESTDDNRSVRRVLDRYSSVFEEAFGTKTVSYSSQNFGILSGSSDAGAASIGAAILGLKPDLDPHDVENDLRAVSESAGRSLFGGLTITWSDGFHAYTEKILDPEAFSGYSIVAFAFDYQRNPSDVIHQNIVRSDLYPARKKHADEHAHMIKEYAKTNDIKGIFDLAQEDTEEYHSILRGVGVNVIRENMQKLISYLKLIRKDYWNAYIVTGGSNVYVAVESENADRLFSIENTFGSKKKMLRIVGGAWHRRPE
- Km: 97 ± 6 µM
